The values that follow come from article PMC7002343.

Bounds are passed on as bounds.

This data set concerns EspM (lysate) (Mycobacterium marinum M (ATCC BAA-535)). Description: DNA pull-down, LC-MS/MS. The following applies: 5' BiotinTEG on both primers; EspM EMSA: 10 mM Tris-HCl pH 8.0, 40 mM KCl, 2.5 mM DTT, 0.25% Tween-20, 0.02 mg/mL salmon sperm DNA (listed as 0.5x binding buffer), ~70 ng probe, 20-25 min …. On the technique in general: In EMSA bound probe runs differently from free probe, usually more slowly.

Consider whiB6 promoter bait (1 kb), for which the binding signal (fold enrichment over rpoA bait (N5)) is > 64.
